# From patent US20220348658A1, “ANTI-T CELL ANTIGEN-BINDING MOLECULE TO BE USED IN COMBINATION WITH CYTOKINE INHIBITOR” (Chugai Seiyaku Kabushiki Kaisha, priority 2019, published 2022)
# Columns and labels:
# [1] = tested on: Hepa1-6/hGPC3 cancer cells; test: Syngeneic mouse model: pre-administration of MR-16-1 and drug efficacy of GC33/2C11; format: in vivo, C57BL/6 mice
# Experimental: In a test using a syngeneic mouse model, a study for evaluating the effect of pre-administration of an anti-mouse IL6 receptor antibody, MR-16-1 (see Okazaki M, et al., Characterization of anti-mouse interleukin-6 receptor antibody, Immunol Lett. 2002 Dec. 3; 84(3):231-40; and Saito T, et al., Preparation of soluble murine IL-6 receptor and anti-murine IL-6 receptor antibodies, J. Immunol., 47 (1991), pp. 168-173), on the drug efficacy of ERY974 surrogate antibodies was carried out as follows. Hepa1-6/hGPC3 cancer cells, which are mouse cancer cell line Hepa1-6 made to highly express human GPC3, were transplanted subcutaneously in C57BL/6 mice. The day of transplantation was set to day 0. On day 18, grouping was performed according to tumor size and body weight. MR-16-1 was administered into the tail vein at 30 mg/kg on day 18. On day 19, the day after MR-16-1 administration, GC33/2C11 was administered into the tail vein at 0.2 and 5 mg/kg. MR-16-1 was administered six times in total (on days 18, 21, 25, 28, 32 and day 35). GC33/2C11 was administered once, only on day 19. GC33/2C11 was an antibody comprising the amino acid sequence of SEQ ID NO: 443 as the GPC3-side heavy chain, the amino acid sequence of SEQ ID NO: 444 as the GPC3-side light chain, the amino acid sequence of SEQ ID NO: 445 as the CD3-side heavy chain, and the amino acid sequence of SEQ ID NO: 446 as the CD3-side light chain.
# [2] = tested on: Hepa1-6/hGPC3 cancer cells; test: Syngeneic mouse model: post-administration of MR-16-1 and drug efficacy of GC33/2C11; format: in vivo, C57BL/6 mice
# Experimental: In a study using a syngeneic mouse model, a study for evaluating the effect of post-administration of an anti-mouse IL6 receptor antibody, MR-16-1, on the drug efficacy of ERY974 surrogate antibodies was carried out as follows. Hepa1-6/hGPC3 cancer cells, which are mouse cancer cell line Hepa1-6 made to highly express human GPC3, were transplanted subcutaneously in C57BL/6 mice. The day of transplantation was set to day 0. On day 16, grouping was performed according to tumor size and body weight. On day 17, GC33/2C11 was first administered into the tail vein at 0.2 or 5 mg/kg, and two hours later, MR-16-1 was administered into the tail vein at 30 mg/kg. MR-16-1 was administered six times in total (on days 17, 21, 24, 28, 31, and day 35). GC33/2C11 was administered once, only on day 17.
molecule,measurement,setting,value
"GC33/2C11: ERY974 surrogate antibody; GPC3-side chains SEQ ID NO: 443/444, CD3-side chains SEQ ID NO: 445/446 (protein, H0000-mF18mN4; GL4-mk1; 2C11VH-mF18mP4; 2C11VL-mk1) chain 1: QVQLVQSGAEVKKPGASVKVSCKASGYTFTDYEMHWIRQPPGQGLEWIGAIDPKTGDTAYSQKFKGRVTLTADKSTSTAYMELSSLTSEDTAVYYCTRFYSYTYWGQGTLVTVSSAKTTPPSVYPLAPGSAAQTNSMVTLGCLVKGYFPEPVTVTWNSGSLSSGVHTFPAVLQSDLYTLSSSVTVPSSTWPSETVTCNVAHPASSTKVDKKIVPRDCGCKPCICTVKEVSKVFIFPPKPKDVLTITLTPKVTCVVVDISKDDPEVQFSWFVDDVEVHTAQTQPREEQFNSTFRSVSELPIMHQDWLNGKEFKCRVNSAAFPAPIEKTISKTKGRPKAPQVYTIPPPKEQMAKDKVSLTCMITDFFPEDITVEWQWNGQPAENYKNTQPIMDTDGSYFVYSELNVQKSNWEAGNTFTCSVLHEGLHNHHTEKSLSHSPGK chain 2: DIVMTQSPLSLPVTPGEPASISCRSSQSLVHSNRNTYLHWYQQKPGQAPRLLIYKVSNRFSGVPDRFSGSGSGTDFTLKISRVEAEDVGVYYCSQNTHVPPTFGQGTKLEIKRADAAPTVSIFPPSSEQLTSGGASVVCFLNNFYPKDINVKWKIDGSERQNGVLNSWTDQDSKDSTYSMSSTLTLTKDEYERHNSYTCEATHKTSTSPIVKSFNRNEC chain 3: EVQLVESGGGLVQPGKSLKLSCEASGFTFSGYGMHWVRQAPGRGLESVAYITSSSINIKYADAVKGRFTVSRDNAKNLLFLQMNILKSEDTAMYYCARFDWDKNYWGQGTMVTVSSAKTTPPSVYPLAPGSAAQTNSMVTLGCLVKGYFPEPVTVTWNSGSLSSGVHTFPAVLQSDLYTLSSSVTVPSSTWPSETVTCNVAHPASSTKVDKKIVPRDCGCKPCICTVKEVSKVFIFPPKPKDVLTITLTPKVTCVVVDISKDDPEVQFSWFVDDVEVHTAQTQPREEQFNSTFRSVSELPIMHQDWLNGKEFKCRVNSAAFPAPIEKTISKTKGRPKAPQVYTIPPPKEQMAKDKVSLTCMITDFFPEDITVEWQWNGQPAENYKNTQPIMRTDGSYFVYSKLNVQKSNWEAGNTFTCSVLHEGLHNHHTEKSLSHSPGK chain 4: DIQMTQSPSSLPASLGDRVTINCQASQDISNYLNWYQQKPGKAPKLLIYYTNKLADGVPSRFSGSGSGRDSSFTISSLESEDIGSYYCQQYYNYPWTFGPGTKLEIKRADAAPTVSIFPPSSEQLTSGGASVVCFLNNFYPKDINVKWKIDGSERQNGVLNSWTDQDSKDSTYSMSSTLTLTKDEYERHNSYTCEATHKTSTSPIVKSFNRNEC",Antitumor activity (%),"[1]; Group 2: GC33/2C11 0.2 mg/kg tail vein, day 19, alone",80%
same,Antitumor activity (%),"[1]; Group 3: GC33/2C11 5 mg/kg tail vein, day 19, alone",110%
same,Antitumor activity (%),"[1]; Group 5: GC33/2C11 0.2 mg/kg day 19 after pre-administration of MR-16-1 (30 then 15 mg/kg, day 18, 21, 25, 28, 32, 35)",99%
same,Antitumor activity (%),"[1]; Group 6: 5 mg/kg day 19 after pre-administration of MR-16-1 (30 then 15 mg/kg, day 18, 21, 25, 28, 32, 35)",107%
same,Antitumor activity (%),"[2]; Group 2: GC33/2C11 0.2 mg/kg tail vein, day 17, alone",102%
same,Antitumor activity (%),"[2]; Group 3: GC33/2C11 5 mg/kg tail vein, day 17, alone",109%
same,Antitumor activity (%),"[2]; Group 5: GC33/2C11 0.2 mg/kg day 17, 2 hours before MR-16-1 (30 then 15 mg/kg, day 17, 21, 24, 28, 31, 35)",103%
same,Antitumor activity (%),"[2]; Group 6: 5 mg/kg day 17, 2 hours before MR-16-1 (30 then 15 mg/kg, day 17, 21, 24, 28, 31, 35)",109%
